The source of these data is US7452534.

For assay [1], the target named is T1, recombinant human soluble CD4 (human, UniProt P01730 26-394, limits assumed).
T1 construct: Soluble form; also called sCD4
The experiment in a line: SPR (BIAcore), soluble CD4 on immobilized mAb, 25 C. As for the experimental part: (§1) The stoichiometry of binding of soluble CD4 to immobilized mAbs can be determined by saturation binding experiments on BIAcore (Pharmacia). Data for the association and dissociation phases of the SPR progress (FIG. 19) were analyzed directly using the integrated form of the rate equations as described in O'Shannessey et al., Anal. Biochem., 212: 467-468 (1993). […] Thus, the stoichiometry of CD4 binding was the same for all mAbs and close to the theoretical value of 2.0.
In general terms: Surface plasmon resonance follows binding to a sensor surface in real time, without labels.

Assay [2] addresses T1, recombinant human soluble CD4. The experiment in a line: SPR (BIAcore) saturation binding of soluble CD4 to immobilized mAb. The protocol: as §1
The target is the same in assay [3]. The experiment in a line: SPR.
Assay [4] has as its target T2, human CD4 on cells (human, UniProt P01730 26-458). The assay is described as follows: cell-based or functional assay.
Assay [5] has as its target T2, human CD4 on cells. The assay is described as follows: cell-based or functional assay. The source holds these as a separate data set.
In a further assay the target is T3, human C1q (human, UniProt P02745 23-245; P02746 28-253; P02747 29-245).
T3 construct: also called Clq
T3 sequence (P02745 23-245 limits assumed, chain 1 of 3): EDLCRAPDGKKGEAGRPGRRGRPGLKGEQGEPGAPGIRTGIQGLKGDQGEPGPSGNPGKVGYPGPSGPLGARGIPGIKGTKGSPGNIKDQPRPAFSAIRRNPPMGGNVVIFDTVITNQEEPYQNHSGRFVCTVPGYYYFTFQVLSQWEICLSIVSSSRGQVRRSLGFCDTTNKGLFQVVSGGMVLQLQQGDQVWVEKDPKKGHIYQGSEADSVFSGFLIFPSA
T3 sequence (P02746 28-253 limits assumed, chain 2 of 3): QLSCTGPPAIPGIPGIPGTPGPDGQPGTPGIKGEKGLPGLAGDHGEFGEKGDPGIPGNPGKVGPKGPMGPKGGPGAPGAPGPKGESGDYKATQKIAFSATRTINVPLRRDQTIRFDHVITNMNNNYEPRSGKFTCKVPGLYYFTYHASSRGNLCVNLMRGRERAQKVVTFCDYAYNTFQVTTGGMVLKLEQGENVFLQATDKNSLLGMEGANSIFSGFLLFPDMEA
T3 sequence (P02747 29-245 limits assumed, chain 3 of 3): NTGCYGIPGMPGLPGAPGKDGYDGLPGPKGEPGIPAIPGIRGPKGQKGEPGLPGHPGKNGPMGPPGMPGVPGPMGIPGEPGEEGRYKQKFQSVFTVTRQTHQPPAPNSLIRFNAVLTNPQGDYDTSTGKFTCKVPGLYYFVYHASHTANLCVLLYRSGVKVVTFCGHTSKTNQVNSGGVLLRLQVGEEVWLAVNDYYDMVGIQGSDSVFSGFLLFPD
The assay is described as follows: C1q binding (summary table of effector functions).

In assay [6] the target is T4, chimpanzee CD4 on lymphocytes (chimpanzee, UniProt P16004 26-458).
T4 construct: whole, on cells
T4 sequence (P16004 26-458): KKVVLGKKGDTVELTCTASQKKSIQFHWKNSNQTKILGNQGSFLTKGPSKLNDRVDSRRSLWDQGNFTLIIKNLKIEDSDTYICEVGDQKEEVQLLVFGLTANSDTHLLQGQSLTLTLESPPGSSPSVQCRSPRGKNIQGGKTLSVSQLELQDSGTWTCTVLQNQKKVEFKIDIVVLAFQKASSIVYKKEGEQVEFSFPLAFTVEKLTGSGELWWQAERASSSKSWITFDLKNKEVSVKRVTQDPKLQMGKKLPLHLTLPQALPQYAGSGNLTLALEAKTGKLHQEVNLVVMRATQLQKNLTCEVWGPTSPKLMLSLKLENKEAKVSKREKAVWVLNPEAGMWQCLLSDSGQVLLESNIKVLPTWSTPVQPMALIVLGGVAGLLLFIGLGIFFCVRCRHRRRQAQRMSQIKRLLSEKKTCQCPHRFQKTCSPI
The assay is described as follows: flow cytometry of blood of chimpanzees dosed at 1.5 mg/kg. As for the experimental part: Six chimpanzees were examined for depletion of CD4^+ T cells and/or modulation of the CD4 receptor from the cell surface after infusions of increasing doses of antibody CE9γ4PE, up to 15 mg/kg. Peripheral blood samples were taken from each chimpanzee three weeks and two weeks prior to the start of the study to establish baseline levels for CD4^+ T cells. In addition to CD4^+ cells, CD3^+ and CD8^+ cell levels were also measured by flow cytometry. […] By subtraction of CD8^+ counts from total CD3^+ counts a theoretical value for the number of CD4^+ T cells could be calculated. By comparing this value with the CD4^+ cells measured suing OKT4, CD4 receptor modulation could be distinguished from CD4^+ cell depletion.
Background: A flow cytometer gives signals particle by particle.

In general, Kd refers to a measure of binding affinity in units of concentration.

B1: CE9γ4λK, chimeric anti-CD4 antibody with human gamma 4 heavy chain constant domain and human kappa light chain constant region (antibody)
heavy: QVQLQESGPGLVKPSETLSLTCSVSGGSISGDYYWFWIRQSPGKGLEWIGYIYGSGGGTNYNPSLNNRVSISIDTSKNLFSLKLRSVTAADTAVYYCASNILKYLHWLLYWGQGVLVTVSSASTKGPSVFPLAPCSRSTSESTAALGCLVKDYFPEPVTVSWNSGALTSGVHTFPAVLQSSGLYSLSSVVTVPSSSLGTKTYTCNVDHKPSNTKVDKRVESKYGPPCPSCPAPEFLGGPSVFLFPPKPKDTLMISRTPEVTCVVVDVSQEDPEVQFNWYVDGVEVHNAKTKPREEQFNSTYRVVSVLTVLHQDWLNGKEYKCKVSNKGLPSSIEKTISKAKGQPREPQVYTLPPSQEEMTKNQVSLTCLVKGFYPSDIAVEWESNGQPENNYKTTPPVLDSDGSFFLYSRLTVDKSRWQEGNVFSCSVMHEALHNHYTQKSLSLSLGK
light: SYELSQPRSVSVSPGQTAGFTCGGDNVGRKSVQWYQQKPPQAPVLVIYADSERPSGIPARFSGSNSGNTATLTISGVEAGDEADYYCQVWDSTADHWVFGGGTRLTVLG
notes: also called CE9γ4XK; CE9γ4K
As to B1, the Kd in assay [1] turned out to be 1.08 nM. In assay [2], the “BIAcore Stoichiometry” value was determined as 1.67 moles CD4/mole mAb.

B2: CE9.1, monkey/human chimeric anti-CD4 monoclonal antibody (cynomolgus variable domains, human gamma 1 / lambda constant regions) (antibody)
heavy: not shown
light: SYELSQPRSVSVSPGQTAGFTCGGDNVGRKSVQWYQQKPPQAPVLVIYADSERPSGIPARFSGSNSGNTATLTISGVEAGDEADYYCQVWDSTADHWVFGGGTRLTVLGQPKAAPSVTLFPPSSEELQANKATLVCLISDFYPGAVTVAWKADSSPVKAGVETTTPSKQSNNKYAASSYLSLTPEQWKSHRSYSCQVTHEGSTVEKTVAPTECS
notes: domain: gamma 1 constant region; the entries may be DNA and may hold a leader; also called mAb CE9.1; monkey/human recombinant antibody (ATCC No. 69030)
As for B2, the results for the Kd in assay [3] and in assay [1] were 1 nM and 0.99 nM, respectively. The “inhibition of human MLR (proliferation and IL-2 production), IC50” value with human CD4 on cells [4] was in the range of 0.01 to 0.03 µg/mL. In addition, the “MLR IL-2 Production (IC50)” value with human CD4 on cells [5] is 0.005 µg/mL. Besides, the “MLR Proliferation (IC50)” value with human CD4 on cells [5] is 0.02 µg/mL. Besides, the “BIAcore Stoichiometry” value in assay [2] stood at 1.56 moles CD4/mole mAb.

B3: CE9γ4E, chimeric anti-CD4 antibody with human gamma 4 constant domain carrying the E modification (L236E) (antibody, human IgG4, lambda)
heavy: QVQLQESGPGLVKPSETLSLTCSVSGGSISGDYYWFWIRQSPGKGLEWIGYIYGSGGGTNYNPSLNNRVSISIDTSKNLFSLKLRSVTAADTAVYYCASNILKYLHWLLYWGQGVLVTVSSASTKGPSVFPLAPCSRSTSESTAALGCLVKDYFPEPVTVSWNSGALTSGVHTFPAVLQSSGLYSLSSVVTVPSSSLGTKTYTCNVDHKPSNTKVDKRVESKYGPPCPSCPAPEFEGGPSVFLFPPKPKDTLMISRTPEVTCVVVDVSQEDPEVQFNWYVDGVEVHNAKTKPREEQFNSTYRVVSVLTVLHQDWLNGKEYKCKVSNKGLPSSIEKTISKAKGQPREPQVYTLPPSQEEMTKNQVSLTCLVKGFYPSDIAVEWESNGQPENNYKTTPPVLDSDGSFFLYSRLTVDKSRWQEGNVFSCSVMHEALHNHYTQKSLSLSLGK
light: B2 light
notes: IgG4 (L236E; 248 Kabat numbering) lambda; also called CE9γ4E(G4E); CE9γE
Regarding B3, in the assay with human CD4 on cells [5], the “MLR IL-2 Production (IC50)” value turned out to be 0.01 µg/mL and the “MLR Proliferation (IC50)” value is 0.02 µg/mL. For the same molecule, the Kd in assay [1] came to 1.43 nM. In addition, the “BIAcore Stoichiometry” value in assay [2] worked out at 1.72 moles CD4/mole mAb.

B4: CE9γ4PE, chimeric anti-CD4 antibody with human gamma 4 constant domain carrying the P and E modifications (S229P, L236E) (antibody, human IgG4 S228P, lambda)
heavy: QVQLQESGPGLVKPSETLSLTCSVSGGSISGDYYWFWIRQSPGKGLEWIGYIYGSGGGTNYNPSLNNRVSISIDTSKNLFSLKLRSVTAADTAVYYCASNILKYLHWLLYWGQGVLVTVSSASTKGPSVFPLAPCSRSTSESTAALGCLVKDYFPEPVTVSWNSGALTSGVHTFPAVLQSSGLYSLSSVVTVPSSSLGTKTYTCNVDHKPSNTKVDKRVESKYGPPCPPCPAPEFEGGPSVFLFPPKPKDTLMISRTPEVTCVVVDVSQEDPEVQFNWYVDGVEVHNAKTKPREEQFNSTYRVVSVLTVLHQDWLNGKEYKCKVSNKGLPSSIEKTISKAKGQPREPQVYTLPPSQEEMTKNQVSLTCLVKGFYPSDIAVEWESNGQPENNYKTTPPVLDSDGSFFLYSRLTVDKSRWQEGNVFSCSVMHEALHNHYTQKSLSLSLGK
light: B2 light
notes: IgG4 (S229P, L236E; 241 and 248 Kabat numbering) lambda, expressed in CHO; also called CE97PE(G4PE); CE9-4PE
B4: the “MLR Proliferation (IC50)” value with human CD4 on cells [5] came to 0.02 µg/mL. In addition, the binding result in the assay with human C1q is “no binding”; in assay [6] it was “binds”. The Kd in assay [1] came out at 1.09 nM.

B5: CE9γ4, chimeric anti-CD4 antibody with human gamma 4 constant domain (antibody, human IgG4, lambda)
heavy: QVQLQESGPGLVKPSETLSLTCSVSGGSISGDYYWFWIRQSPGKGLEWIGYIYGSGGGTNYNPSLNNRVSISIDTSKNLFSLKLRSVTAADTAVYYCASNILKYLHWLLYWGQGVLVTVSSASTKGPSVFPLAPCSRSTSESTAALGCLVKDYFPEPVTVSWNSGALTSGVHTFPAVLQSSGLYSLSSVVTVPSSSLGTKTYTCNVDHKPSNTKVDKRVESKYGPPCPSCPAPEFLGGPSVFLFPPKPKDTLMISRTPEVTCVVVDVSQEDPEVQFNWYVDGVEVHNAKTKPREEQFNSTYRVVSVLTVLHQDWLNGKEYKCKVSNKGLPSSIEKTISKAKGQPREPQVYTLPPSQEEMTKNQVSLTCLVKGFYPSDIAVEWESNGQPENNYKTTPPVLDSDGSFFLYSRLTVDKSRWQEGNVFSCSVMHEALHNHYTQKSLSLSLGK
light: B2 light
notes: IgG4 lambda; also called CE9γ4(G4); anti-CD4 (G4, L, Oz-)
As to B5, in the assay with human CD4 on cells [5], the “MLR IL-2 Production (IC50)” value was 0.005 µg/mL and the “MLR Proliferation (IC50)” value worked out at 0.02 µg/mL. For the same molecule, the dissociation constant (Kd) in assay [1] was determined as 1.34 nM. Also, the “BIAcore Stoichiometry” value in assay [2] stood at 1.61 moles CD4/mole mAb.
